Experimental findings from patent US20240002547A1 (AEBI, published 2024) are described below.

Positions of bridges follow the written chain, without caps; N, C: chain ends. No end group written: not given here.

This test addresses human eukaryotic elongation factor 2 (eEF2) (human, UniProt P13639 2-858). In words: peptide screening by the technique of WO 2007/010525.

As to CSARWGPTMPWC (disulfide 1-12 (inferred)) [Tox1], the binding result is “binds”.

For the molecule CRRGSRASGAHC (disulfide 1-12 (inferred)) [Tox2], the binding result is on record as “binds”.
